Biological target: Untagged human calmodulin (recombinant) (human, UniProt P0DP23 1-149)
Assay: pull-down

- binding result: binds
B1: GFP-myoVa-IQ1 (aa742-791) (domain or fragment)
chain: FGKTKIFFRAGQVAYLEKLRADKLRAACIRIQKTIRGWLLRKRYLCMQR

— doi:10.1101/2020.08.14.250746 (bioRxiv, 2020)
